Changes are numbered by the printed parent chain. Numbers in names are those of the source.
B1: OKT3 scFv (scFv, V domains shown)
VH: QVQLVQSGGGVVQPGRSLRLSCKASGYTFTRYTMHWVRQAPGKGLEWIGYINPSRGYTNYNQKVKDRFTISRDNSKNTAFLQMDSLRPEDTGVYFCARYYDDHYSLDYWGQGTPVTVSS
notes: Made in E. coli; also called OKT3 scFv(コントロール); 変異導入前のOKT3 scFv; not shown: linker, VL of OKT3 (OL) and any tag
B2: OKT3 scFv-D65A/D82aN (scFv, name in Kabat numbering, V domains shown)
VH: B1 VH with D66A, D84N
notes: not shown: linker, VL of OKT3 (OL) and any tag
B3: OKT3 scFv-D65N/D82aN (scFv, name in Kabat numbering, V domains shown)
VH: B1 VH with D66N, D84N
notes: as for B2

Target: プロテインA (rProtein A Sepharose Fast Flow) (UniProt P38507 37-327)
Assay: rProtein A Sepharose Fast Flow column, fractions on SDS-PAGE

Binder	binding result
B1	no binding
B2	no binding
B3	no binding

Reference: patent JP2023092810A (dated 2023)
